Data reported in PMC10397247.
Each block holds one binder with its values, some of them ahead of it.

How the values were obtained:
4H492-bN = target: T1, 4H492-bN; experiment: two-hybrid library CCNG1;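 further: natural log of median RNA to DNA barcode read ratio; higher means stronger binding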
T1 chain: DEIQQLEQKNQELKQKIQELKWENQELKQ

4H477-bN = target: T2, 4H477-bN; experiment: two-hybrid library CCNG1;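 further: natural log of median RNA to DNA barcode read ratio; higher means stronger binding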
T2 chain: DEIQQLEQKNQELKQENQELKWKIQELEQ

4H932-bN = target: T3, 4H932-bN; experiment: two-hybrid library CCNG1;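 further: natural log of median RNA to DNA barcode read ratio; higher means stronger binding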
T3 chain: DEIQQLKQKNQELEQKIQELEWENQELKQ

4H741-bN = target: T4, 4H741-bN; experiment: two-hybrid library CCNG1;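 further: natural log of median RNA to DNA barcode read ratio; higher means stronger binding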
T4 chain: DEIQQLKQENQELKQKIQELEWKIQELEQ

4H967-bH = target: T5, 4H967-bH; experiment: two-hybrid library CCNG1
T5 chain: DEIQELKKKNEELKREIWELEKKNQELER

4H883-bH = target: T6, 4H883-bH; experiment: two-hybrid library CCNG1
T6 chain: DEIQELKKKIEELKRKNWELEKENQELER

4H797-bH = target: T7, 4H797-bH; experiment: two-hybrid library CCNG1
T7 chain: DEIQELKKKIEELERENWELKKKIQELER

4H855-bH = target: T8, 4H855-bH; experiment: two-hybrid library CCNG1
T8 chain: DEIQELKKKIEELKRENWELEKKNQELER

4H754-bH = target: T9, 4H754-bH; experiment: two-hybrid library CCNG1
T9 chain: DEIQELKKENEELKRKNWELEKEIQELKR

4H918-bH = target: T10, 4H918-bH; experiment: two-hybrid library CCNG1
T10 chain: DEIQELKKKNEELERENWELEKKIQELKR

4H953-bH = target: T11, 4H953-bH; experiment: two-hybrid library CCNG1
T11 chain: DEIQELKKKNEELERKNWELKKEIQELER

4H968-bH = target: T12, 4H968-bH; experiment: two-hybrid library CCNG1
T12 chain: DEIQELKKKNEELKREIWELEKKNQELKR

4H780-bH = target: T13, 4H780-bH; experiment: two-hybrid library CCNG1
T13 chain: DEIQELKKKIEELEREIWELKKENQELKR

4H908-bH = target: T14, 4H908-bH; experiment: two-hybrid library CCNG1
T14 chain: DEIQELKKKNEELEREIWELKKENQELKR

4H432-AA = target: T15, 4H432-AA; experiment: two-hybrid library CCmax; conditions: mean of both orientations
T15 chain: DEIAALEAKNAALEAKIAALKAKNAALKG

4H3974-AA = target: T16, 4H3974-AA; experiment: two-hybrid library CCmax; conditions: mean of both orientations
T16 chain: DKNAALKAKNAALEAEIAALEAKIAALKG

4H3915-AA = target: T17, 4H3915-AA; experiment: two-hybrid library CCmax; conditions: mean of both orientations
T17 chain: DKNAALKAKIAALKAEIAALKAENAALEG

4H3619-AA = target: T18, 4H3619-AA; experiment: two-hybrid library CCmax; conditions: mean of both orientations
T18 chain: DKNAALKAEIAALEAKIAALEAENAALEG

4H324-AA = target: T19, 4H324-AA; experiment: two-hybrid library CCmax
T19 chain: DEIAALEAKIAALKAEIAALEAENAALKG

4H446-AA = target: T20, 4H446-AA; experiment: two-hybrid library CCmax; conditions: mean of both orientations
T20 chain: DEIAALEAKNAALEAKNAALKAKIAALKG

4H3449-AA = target: T21, 4H3449-AA; experiment: two-hybrid library CCmax; conditions: mean of both orientations
T21 chain: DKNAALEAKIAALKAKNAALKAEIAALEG

4H3629-AA = target: T22, 4H3629-AA; experiment: two-hybrid library CCmax; conditions: mean of both orientations
T22 chain: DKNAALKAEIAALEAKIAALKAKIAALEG

4H341-AA = target: T23, 4H341-AA; experiment: two-hybrid library CCmax; conditions: mean of both orientations
T23 chain: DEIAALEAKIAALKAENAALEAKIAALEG

4H63-AA = target: T24, 4H63-AA; experiment: two-hybrid library CCmax; conditions: mean of both orientations
T24 chain: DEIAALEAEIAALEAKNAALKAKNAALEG

4H3777-AA = target: T25, 4H3777-AA; experiment: two-hybrid library CCmax; conditions: mean of both orientations
T25 chain: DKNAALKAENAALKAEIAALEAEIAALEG

4H380-AA = target: T26, 4H380-AA; experiment: two-hybrid library CCmax; conditions: mean of both orientations
T26 chain: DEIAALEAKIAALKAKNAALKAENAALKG

interaction score (4H492-bN): -0.94
interaction score (4H477-bN): -1.14
interaction score (4H932-bN): -0.0984
interaction score (4H741-bN): -1.17
Binder: DEIQQLEQKNQELKQENQELKWKIQELEQ [4H477-bN]

interaction score (4H967-bH): -0.713
interaction score (4H883-bH): -0.29
interaction score (4H797-bH): -0.0415
interaction score (4H855-bH): -0.362
interaction score (4H754-bH): 1.36
interaction score (4H918-bH): 0.604
interaction score (4H953-bH): 0.539
interaction score (4H968-bH): -0.182
interaction score (4H780-bH): -0.00466
interaction score (4H908-bH): 0.329
Binder: DEIQELKKENEELKRKNWELEKEIQELKR [4H754-bH]

interaction score (4H432-AA): -0.834
interaction score (4H3974-AA): 1.2
interaction score (4H3915-AA): 0.128
interaction score (4H3619-AA): 1.47
interaction score (4H324-AA): 1.11
interaction score (4H446-AA): -1.06
interaction score (4H3449-AA): -1.69
interaction score (4H3629-AA): 1.36
interaction score (4H341-AA): -0.39
interaction score (4H63-AA): -0.0237
interaction score (4H3777-AA): -1.37
interaction score (4H380-AA): 0.833
Binder: DEIAALEAKIAALKAEIAALEAENAALKG [4H324-AA]
